Where a chain is given by its changes, count along the chain named.

In general, koff refers to the rate constant with which the complex falls apart. A lower koff goes with slow dissociation. The Kd is the equilibrium constant for the complex coming apart. Low values mean tighter binding, high ones weaker binding. What is called kon is the rate constant with which the complex forms.

In one assay the target is T1, VEGFR2 (KDR) on HUVECs (human, UniProt P35968 20-1356).
T1 construct: Endogenous receptor on HUVECs; also called KDR (VEGFR-2)
Nature of the assay: FACS on HUVECs, 5 nM, anti-human IgG-PE secondary; secondary only 65.7. The protocol:
To determine the binding activity of the fusion protein to HUVECs, FACS analysis was performed using the fusion protein and control antibodies (6A6, 6A6×DLL4, D4, Minod-Fc).
Specifically, HUVECs (LONZA, Cat No. C2519A) were cultured at 37° C. and 5% CO₂ using a plate coated with 2% gelatin and VascuLife medium complete kit (Lifeline Cell Technology, Cat No. #LCT-LL-0005). The cells were prepared at a concentration of 2×10⁷ cells/ml in FACS buffer (0.5% FBS, 0.05% sodium azide in PBS) and dispensed at 50 μl into each of FACS tubes. 100 μl of each antibody at a concentration of 5 nM was mixed in the FACS tube, followed by reaction at 4° C. for 30 minutes. After completion of reaction, 2 ml of FACS buffer was added to each tube, followed by centrifugation at 1500 rpm for 3 minutes. The supernatant was removed, the cells were resuspended, and 100 μl of anti-human IgG-PE antibody (1:200, Bethyl, #A80-248PE) was added, followed by reaction at 4° C. for 20 minutes. 2 ml of FACS buffer was added to each FACS tube, followed by centrifugation at 1500 rpm for 3 minutes. The separated supernatant was removed, the cells were resuspended in 200 μl of FACS buffer, and the binding activity was analyzed using FACS (Beckton Dickinson, Lyric).

The target of assay [1] is T2, hDLL4 expressed on HEK293 cells (human, UniProt Q9NR61 27-685).
T2 construct: whole, on cells; also called DLL4-overexpressed HEK293 cells
In words: FACS on hDLL4-overexpressing HEK293 cells (293-DLL4), 5 nM, anti-human IgG-PE secondary; secondary only 82.0. The protocol: Specifically, the pcDNA-hDLL4 vector synthesized by GeneArt was transfected into HEK293 cells using Lipofectamin™ 2000 (Invitrogen #1168-019, USA), and neomycin (Gibco #10131, 50 mg/ml) was added for selection. Then, all grown cells were collected and cultured in a pool state. Then, 23 types of single colonies were obtained by culture using a limiting dilution method, and among the single colonies, one type of cell line that highly overexpressed hDLL4 was selected and tested. The selected cells were prepared to a concentration of 2×10⁷ cells/ml in FACS buffer (0.5% FBS, 0.05% sodium azide in PBS) and dispensed at 50 μl into each of FACS tubes. 5 nM fusion protein and control antibodies (6A6, 6A6×DLL4, D4, D4×DLL4, Minod-Fc) were added in 100 μl to each of the FACS tubes containing the cells, followed by reaction at 4° C. for 30 minutes. After completion of reaction, 2 ml of FACS buffer was added to each tube, followed by centrifugation at 1500 rpm for 3 minutes. The supernatant was removed, the cells were well resuspended, and then 100 μl of anti-human IgG-PE antibody (1:200, […], #A80-248PE) was added, followed by reaction at 4° C. for 20 minutes. After completion of reaction, 2 ml of FACS buffer was added to each FACS tube, followed by centrifugation at 1500 rpm for 3 minutes. The separated supernatant was removed, the cells were resuspended in 200 μl of FACS buffer, and the binding activity was analyzed using FACS (Beckton Dickinson, Lyric).

The next assay addresses T3, KDR1-3 domains (UniProt P35968 20-327, limits assumed).
T3 construct: domain: KDR1-3 domains; Immobilized on the Octet biosensor; also called KDR D1-D3; KDR1-3 domain-Fc (as used for panning)
Nature of the assay: Octet BLI, KDR1-3 domains on biosensor, scFv in solution. The protocol:
The binding ability of the selected antibodies to the antigen was measured using Octet (Fortebio). To this end, KDR1-3 domains were immobilized on a biosensor, candidate antibodies expressed in scFv form were added and bound, and the dissociation rate constant was measured. The results of measurement of dissociation rate constant for the five selected optimized clones [Table 1] and amino acid sequences [Tables 2 and 3] are shown below.
Background: Biolayer interferometry detects binding as a change in optical thickness at a sensor tip.

The next assay concerns the target T4, hKDR-ECD (human, UniProt P35968 20-764).
T4 construct: extracellular domain; Analyte in SPR; also called human KDR (VEGFR-2) extracellular domain
In words: SPR Biacore T200, fusion protein captured on Protein A chip, antigen as analyte, 1:1 model. The protocol: (§1) The binding ability of the selected fusion protein to the antigen was measured using SPR (Biacore T200, Cytiva). The fusion protein was captured and analyzed using the antigen protein as an analyte. Using a Protein A chip, the fusion protein was immobilized on the surface according to the manufacturer's instructions. The fusion protein on the sensor chip was diluted with PBS-T running buffer to a concentration of 5 μg/ml and injected at a flow rate of 10 μl/min to reach about 200 RU. The antigen was diluted with PBS-T running buffer by concentration and injected at a flow rate of 30 μl/min for 4 minutes, and the dissociation time was set to 10 minutes. To remove the fusion protein bound every cycle, a regeneration solution (10 mM glycine-HCl, pH 1.5) was injected at a flow rate of 30 μl/min for 1 minute. The experimental results were calculated using the 1:1 binding model of BIA evaluation software version 1.0.
A general note: Surface plasmon resonance follows binding to a sensor surface in real time, without labels.

The target in the next assay is T5, hDLL4 (human, UniProt Q9NR61 27-524, limits assumed).
T5 construct: Analyte in SPR; also called human delta-like ligand 4 (soluble antigen protein)
The description is as above. How it is done:
as §1

T3 sequence (P35968 20-327 limits assumed): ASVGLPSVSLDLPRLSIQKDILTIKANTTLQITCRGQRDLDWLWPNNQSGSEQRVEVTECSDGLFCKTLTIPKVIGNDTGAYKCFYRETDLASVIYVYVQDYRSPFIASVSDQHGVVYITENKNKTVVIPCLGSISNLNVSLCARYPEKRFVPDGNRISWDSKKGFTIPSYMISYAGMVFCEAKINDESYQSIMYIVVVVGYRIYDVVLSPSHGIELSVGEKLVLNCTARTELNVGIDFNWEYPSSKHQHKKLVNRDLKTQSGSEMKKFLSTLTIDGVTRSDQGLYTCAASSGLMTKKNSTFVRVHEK
T4 sequence (P35968 20-764): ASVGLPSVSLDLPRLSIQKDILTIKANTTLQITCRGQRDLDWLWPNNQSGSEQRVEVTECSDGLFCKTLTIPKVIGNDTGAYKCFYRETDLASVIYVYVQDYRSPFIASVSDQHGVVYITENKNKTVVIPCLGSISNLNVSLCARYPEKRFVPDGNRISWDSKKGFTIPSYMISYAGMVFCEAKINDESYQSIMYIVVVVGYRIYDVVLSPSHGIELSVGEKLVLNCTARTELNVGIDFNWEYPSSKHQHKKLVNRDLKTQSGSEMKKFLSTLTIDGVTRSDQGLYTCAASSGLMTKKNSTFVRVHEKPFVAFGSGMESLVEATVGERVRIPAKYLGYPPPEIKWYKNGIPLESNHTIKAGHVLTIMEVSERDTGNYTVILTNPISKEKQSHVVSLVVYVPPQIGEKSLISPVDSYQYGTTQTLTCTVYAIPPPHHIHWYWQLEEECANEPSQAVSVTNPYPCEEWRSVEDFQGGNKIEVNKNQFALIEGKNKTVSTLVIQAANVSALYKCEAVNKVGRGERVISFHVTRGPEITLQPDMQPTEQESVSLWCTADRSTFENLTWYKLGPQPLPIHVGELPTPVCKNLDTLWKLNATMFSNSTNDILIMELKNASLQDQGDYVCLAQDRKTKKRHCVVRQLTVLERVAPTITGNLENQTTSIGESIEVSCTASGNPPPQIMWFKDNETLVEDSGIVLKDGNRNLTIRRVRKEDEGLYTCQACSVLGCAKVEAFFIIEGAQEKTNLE
T2 sequence (Q9NR61 27-685): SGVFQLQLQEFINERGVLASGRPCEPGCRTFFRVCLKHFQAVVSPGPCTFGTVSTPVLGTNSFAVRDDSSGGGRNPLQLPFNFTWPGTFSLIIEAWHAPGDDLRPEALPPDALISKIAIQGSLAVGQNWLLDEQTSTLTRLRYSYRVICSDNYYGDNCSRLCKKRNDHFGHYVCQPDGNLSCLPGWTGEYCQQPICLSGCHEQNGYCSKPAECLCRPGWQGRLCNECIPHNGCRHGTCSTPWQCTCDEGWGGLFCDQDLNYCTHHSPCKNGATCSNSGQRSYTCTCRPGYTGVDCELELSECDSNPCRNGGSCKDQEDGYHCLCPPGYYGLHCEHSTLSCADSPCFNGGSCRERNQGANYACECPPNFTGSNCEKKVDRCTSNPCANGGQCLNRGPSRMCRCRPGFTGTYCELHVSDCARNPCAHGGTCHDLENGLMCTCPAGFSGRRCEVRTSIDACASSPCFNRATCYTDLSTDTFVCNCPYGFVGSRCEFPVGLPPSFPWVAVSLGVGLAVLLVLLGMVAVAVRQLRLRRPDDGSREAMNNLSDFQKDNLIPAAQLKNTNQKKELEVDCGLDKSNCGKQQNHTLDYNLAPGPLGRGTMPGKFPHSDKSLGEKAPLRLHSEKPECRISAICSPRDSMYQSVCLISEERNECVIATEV
T1 sequence (P35968 20-1356 limits assumed): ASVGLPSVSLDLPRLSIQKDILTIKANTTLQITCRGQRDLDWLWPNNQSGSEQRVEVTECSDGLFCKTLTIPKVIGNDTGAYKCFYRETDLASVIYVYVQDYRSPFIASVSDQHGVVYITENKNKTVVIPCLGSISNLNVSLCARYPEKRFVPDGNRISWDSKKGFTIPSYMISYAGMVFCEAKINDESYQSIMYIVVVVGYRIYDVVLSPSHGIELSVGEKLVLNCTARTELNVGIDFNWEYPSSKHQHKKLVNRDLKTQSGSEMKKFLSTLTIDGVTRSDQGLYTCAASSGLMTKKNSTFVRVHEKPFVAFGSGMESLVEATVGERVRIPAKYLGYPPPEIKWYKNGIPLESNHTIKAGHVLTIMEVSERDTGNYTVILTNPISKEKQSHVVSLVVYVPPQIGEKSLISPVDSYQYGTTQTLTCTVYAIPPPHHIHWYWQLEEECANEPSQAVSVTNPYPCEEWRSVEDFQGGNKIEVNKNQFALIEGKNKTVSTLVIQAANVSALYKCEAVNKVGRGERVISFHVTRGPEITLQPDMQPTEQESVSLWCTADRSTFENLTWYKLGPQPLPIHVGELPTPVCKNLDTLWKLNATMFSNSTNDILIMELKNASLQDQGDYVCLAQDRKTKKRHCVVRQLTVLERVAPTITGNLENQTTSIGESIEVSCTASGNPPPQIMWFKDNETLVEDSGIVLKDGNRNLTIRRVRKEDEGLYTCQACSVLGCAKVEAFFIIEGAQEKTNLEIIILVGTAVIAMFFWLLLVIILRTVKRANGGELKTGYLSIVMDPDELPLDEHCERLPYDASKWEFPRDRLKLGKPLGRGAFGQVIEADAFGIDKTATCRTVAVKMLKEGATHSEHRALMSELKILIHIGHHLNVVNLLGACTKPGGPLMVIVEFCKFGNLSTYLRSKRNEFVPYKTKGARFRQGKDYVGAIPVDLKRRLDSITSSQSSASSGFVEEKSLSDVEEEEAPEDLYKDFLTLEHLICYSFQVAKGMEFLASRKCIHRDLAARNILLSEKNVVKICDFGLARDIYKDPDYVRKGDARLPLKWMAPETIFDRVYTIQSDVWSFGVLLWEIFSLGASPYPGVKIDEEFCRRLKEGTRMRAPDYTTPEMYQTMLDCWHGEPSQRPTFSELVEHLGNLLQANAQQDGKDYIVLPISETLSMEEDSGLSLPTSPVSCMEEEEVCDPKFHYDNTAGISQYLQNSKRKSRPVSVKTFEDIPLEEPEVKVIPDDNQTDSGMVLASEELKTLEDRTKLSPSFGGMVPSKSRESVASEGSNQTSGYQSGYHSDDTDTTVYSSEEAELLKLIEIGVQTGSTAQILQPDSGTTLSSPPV
T5 sequence (Q9NR61 27-524 limits assumed): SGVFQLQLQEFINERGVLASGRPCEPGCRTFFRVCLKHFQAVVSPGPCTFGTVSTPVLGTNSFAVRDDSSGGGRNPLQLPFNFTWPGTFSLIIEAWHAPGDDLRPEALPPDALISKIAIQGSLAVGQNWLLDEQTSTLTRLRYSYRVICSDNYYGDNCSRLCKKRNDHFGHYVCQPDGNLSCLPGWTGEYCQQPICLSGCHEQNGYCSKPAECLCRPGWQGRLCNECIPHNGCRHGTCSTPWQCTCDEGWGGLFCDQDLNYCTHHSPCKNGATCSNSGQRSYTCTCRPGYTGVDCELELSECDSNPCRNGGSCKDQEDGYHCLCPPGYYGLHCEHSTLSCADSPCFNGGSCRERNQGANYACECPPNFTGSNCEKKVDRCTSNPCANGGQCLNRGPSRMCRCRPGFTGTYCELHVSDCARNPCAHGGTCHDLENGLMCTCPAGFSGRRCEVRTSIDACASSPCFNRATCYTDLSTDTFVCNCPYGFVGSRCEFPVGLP

B1: D4 (IgG1 form) (antibody, V domains shown)
VH: EVQLVESGGGLVQPGGSLRLSCAASGYTFSSYWMSWVRQAPGKGLEWVSEINPGNGHTNYNEKFKSRFTISRDKSKNTLYLQMNSLRAEDTAVYYCARHWGPSLTSPFDYWGQGTLVTVSS
VL: DIQMTQSPSSLSASVGDRVTITCRADNLGDVNVHWYQQKPGKAPKLLIYYDADRPSGVPSRFSGSNSGNDATLTISSLQPEDFATYYCQAPTNNDPYTFGQGTKVEIKR
notes: also called optimized antibody D4
Turning to B1, the results for the “Geometric Mean : PE-A” value (in the assay with VEGFR2 (KDR) on HUVECs; in assay [1]) were 456 and 71.1, respectively.

B2: D4 (scFv form) (scFv, V domains shown)
VH: B1 VH
VL: B1 VL
notes: Tested as scFv
Molecule B2 yielded a koff with KDR1-3 domains of 0.000165 s⁻¹.

B3: LHL-G1 (scFv form) (scFv, V domains shown)
VH: B1 VH with H99S, W100Y, G101R, Y110F
VL: B1 VL with N93T, D95E
notes: Tested as scFv
B3: the off-rate constant (koff) in the assay with KDR1-3 domains came out at 0.000239 s⁻¹. This koff and that of the molecule before are within 1.5-fold of each other.

B4: D3 (scFv form) (scFv, V domains shown)
VH: B1 VH
VL: B1 VL with N93K, D95V
notes: Tested as scFv
In the case of B4, in the assay with KDR1-3 domains, the koff amounted to 0.00015 s⁻¹.

B5: LH-E7 (scFv form) (scFv, V domains shown)
VH: B1 VH
VL: B1 VL with N93R, N94I, D95A
notes: Tested as scFv
In turn, B5 returned an off-rate (koff) with KDR1-3 domains of 0.000111 s⁻¹.

B6: A5 (scFv form) (scFv, V domains shown)
VH: B1 VH
VL: B1 VL with N93T, N94H, D95L
notes: Tested as scFv
On to B6, for which the koff with KDR1-3 domains stood at 0.000187 s⁻¹.

B7: 6A6×DLL4 (bispecific antibody)
VH: QMQLVQSGAEVKKPGASVKLSCKASGYTFSSYWMHWVRQAPGQRLEWMGEINPGNGHTNYNEKFKSRVTITVDKSASTAYMELSSLRSEDTAVYYCAKIWGPSLTSPFDYWGQGTLVTVSS
Notch1-VL: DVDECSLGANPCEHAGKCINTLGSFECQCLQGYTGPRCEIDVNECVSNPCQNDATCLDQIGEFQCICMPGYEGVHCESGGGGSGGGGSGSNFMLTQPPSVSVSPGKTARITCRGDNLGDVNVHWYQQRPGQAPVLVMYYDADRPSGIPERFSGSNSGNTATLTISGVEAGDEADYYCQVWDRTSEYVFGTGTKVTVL
notes: Comparative fusion protein with a 6A6 backbone; it was captured on a Protein A chip; also called 6A6xDLL4
As to B7, in the assay with VEGFR2 (KDR) on HUVECs, the “Geometric Mean : PE-A” value came out at 380. Further, the “Geometric Mean : PE-A” value in assay [1] amounted to 968. In the assay with hKDR-ECD, the Kd amounted to 4.46 nM, the Pmax turned out to be 502, the dissociation rate constant (koff) turned out to be 0.000837 s⁻¹ and the kon stood at 188000 M⁻¹ s⁻¹. In the assay with hDLL4, this molecule displayed a Pmax of 74.9 and a kon of 45800 M⁻¹ s⁻¹.

B8: 6A6 (control antibody) (antibody, V domains shown)
VH: B7 VH
VL: SNFMLTQPPSVSVSPGKTARITCRGDNLGDVNVHWYQQRPGQAPVLVMYYDADRPSGIPERFSGSNSGNTATLTISGVEAGDEADYYCQVWDRTSEYVFGTGTKVTVLG
On to B8, for which the “Geometric Mean : PE-A” value in the assay with VEGFR2 (KDR) on HUVECs was 352; in assay [1] it was 84.6.

The record behind these values is patent US20250179192A1 (PHARMABCINE, published 2025).
